21 sequences from the DeepSol protein solubility set can be followed below.

This data set in a line: soluble on expression in E. coli; label from the status in PepcDB or PDB records.
For “MAHHHHHHMWRRGVAAVPLPLWQGKLLQLVHHRALSTDTTGDEATAWSRAMEAKYGTGTYKLFRPLYKDLSDEMRLEAYTKPPAPMQGWSVHHDEAVNLAIFSHKGDSRSRTARVVAYSPITVENPESLNPLLYFMDWYPINVLMERNGVVVHFSIASTEGGMHMRNVRVYKAQDELSPNDPEKQDLPNRDSECERLMSTTDDAAWVRHNLYYDGPCLWHLELDMLNELYDVMQDHGVTLDWVRWVAEWVHYLEHVSYVRWALGVLQELIPVDERGPEDDFLTFEEKEALATPPEEWLEAHYI”, the “soluble on expression in E. coli” value is given as “not soluble”.
Regarding “MEQPLMPPAPPSYVASQSQAITTQPGASIPMPPGTIVIEALPPVEGIPGGLEYLAYLDTIMVHQFLEPIEIRTGWETKNKYAIKKICYQKRQCCGAERAFVMHIVDNFNKEVLTVKRERHCCGCCCWLGSTNKSTIESPSMGLLGTVLLGHGCTNSHCNVLDKDEELLFLVDGQGCCTYCCCDDKAFTIKTPDTYKRIGAITKKWGGIIREAYTDADTFAVTFPADLDVKAKALLLATTILQSLRVVVEVEKLEIEIFICCALFMK”, the “soluble on expression in E. coli” value is given as “not soluble”.
To “MLTPISIEKEHIRLINLLHFINEQNRWFTIKELSDYLQVADKTVRKYLKLLEDEIPPSWNLLVQKGKGIYLKKPLNESLSFVESKILRKSLNLQICEELVFKKNSMQSLAQKLHLQVGALYPIINQINYDIQSSHLNIKKKPLEISGREQDVRVFMLRLYCNIPNDYWPFPYINKQNITDLINKMEKILNVQMYTYSKHKLCVLFAITISRLLSGNTIDNVSGLILVNKNDDHYKTVASITSELQNSFGVTLHETEISFLALALLLSLGNSITTDSNKTLTSYKKTIMPLAKEITKGIEHKLQLGINYDESFLTYVVLIIKKALDKNFIQYYNYNIKFIRHIKQRHPNTFNTIQECISNLNYTVYSHFDCYEISLLTMHFETQRMLFKNNPKKIYVYTSQGCIHREYISALLEKRYNGLIKIVRNTIINLTNESLQDMEIDIIISNVNLPIKNIPIVQISEFPTERDFHEIKKII” belongs “not soluble”.
For “MSELVVIREMQEKDILALDTQFVQQGWPSRQEILMNYLEEQLVKQRTVFVAEKKATLLGYVTLLPLAKEGPFKNLYPEIADFNVFLPFQKQGVGRLLLNRAENVAKSYADTVSLGVGLHPGYGAAQRLYIKQGYVPDGSGVWFQNKQLKPNERCVNDDELVLYLSKKL”, the “soluble on expression in E. coli” value is on record as “not soluble”.
As to “MEKQNIAVILARQNSKGLPLKNLRKMNGISLLGHTINAAISSKCFDRIIVSTDGGLIAEEAKNFGVEVVLRPAELASDTASSISGVIHALETIGSNSGTVTLLQPTSPLRTGAHIREAFSLFDEKIKGSVVSACPMEHHPLKTLLQINNGEYAPMRHLSDLEQPRQQLPQAFRPNGAIYINDTASLIANNCFFIAPTKLYIMSHQDSIDIDTELDLQQAENILNHKES”, the “soluble on expression in E. coli” value is recorded as “soluble”.
The entry for “MVIPALNEAPTVAKVVEAVLADNPLEVLVIDADSTDATAAEARSAGATVLNWREILDTEPIPGKGESLWRGVAAARGDIVVFVDADLTSFRPGMVNSLVAPFLNDDIHLVKADYVRTFGDHTTGGGRVTELTAKPLLRALFPELSHIRQPLGGEYAIRRSTALAMPFVSGYGVEVGLLIDVATQFGTSSIAQVDLGSRSHNHQSLEALGSMADVVATTILQRFGHDLPVVQREPLGIHLEHHHHHH” is “not soluble”; for “GMEWQAEQAYNHLPPLPLDSKLAELAETLPILKACIPARAALAELKQAGELLPNQGLLINLLPLLEAQGSSEIENIVTTTDKLFQYAQEDSQADPMTKEALRYRTALYQCFTQLSNRPLCVTTALEICSTIKSVQMDVRKVPGTSLTNQATGEVIYTPPAGESVIRDLLSNWEAFLHNQDDVDPLIKMAMAHYQFEAIHPFIDGNGRTGRVLNILYLIDQQLLSAPILYLSRYIVAHKQDYYRLLLNVTTQQEWQPWIIFILNAVEQTAKWTTHKIAAARELIAHTTEYVRQQLPKIYSHELVQVIFEQPYCRIQNLVESGLAKRQTASVYLKQLCDIGVLEEVQSGKEKLFVHPKFVTLMTKDSNQFSRYAL” it is “soluble”.
“MAHHHHHHMLGACYPIPSGISLSLSRSRAYDVVYHYTRAAHIRLRLHGSGHSGEHMAAAEQRTCRPHLLWRLDGRPHADSIGHGLADDTRLCARVDLRRMLVACPRWGQSRAFIPQSRRLRALPRDGLRACLRGAVLPSGLATVTMVADDTT”: the “soluble on expression in E. coli” value is “not soluble”.
To “MGSDKIHHHHHHMSGPQKANDLLGQIPKTKGLPPVHLWNPDFCGDIDMRIARDGTWYYLGTPIGRKPMVKLFSTIIRRDGDDYFLITPVEKVGIKVDDAPFVAIAVEMEGEGEAQVLRFTTNVDETTEAGAEHLIRVEIDPVTQEPAPYVHVRTNLEALIHRNVFYQLVELAVSREIDGQRWLGVWSGGEFFRIGLEP” belongs “not soluble”.
The entry for “GPGSMDYPKKNQAAPAEGQTVRLTITSRNAKAVESVTSQLLTRARDEKVTIHGPVRLPTRTLKITTRKTPCGNGTNTWDTFELKIYKRIIDLHAPTEQVKKITSFTMESGVDVSITILDR” is “soluble”; for “MARSLLLPLQILLLSLALETAGEEAQGDKIIDGAPCARGSHPWQVALLSGNQLHCGGVLVNERWVLTAAHCKMNEYTVHLGSDTLGDRRAQRIKASKSFRHPGYSTQTHVNDLMLVKLNSQARLSSMVKKVRLPSRCEPPGTTCTVSGWGTTTSPDVTFPSDLMCVDVKLISPQDCTKVYKDLLENSMLCAGIPDSKKNACNGDSGGPLVCRGTLQGLVSWGTFPCGQPNDPGVYTQVCKFTKWINDTMKKHR” it is “soluble”.
The entry for “MGSDKIHHHHHHMKLNFTGHTDPGLIRSNNQDDYYIDPEGRFFIVADGMGGHAGGEEASRIATREIKAYLTANWDVSKPSSELLEQALWQANEAILQDQQNHPERADMGTTAVVVIFRNDEQWCAHVGDSRLYRLRETQLEQVTEDHTWVARAIKIGDITAEEARVHPFRHVLSRCLGREDLHQVDVQPLDTKIGDRLLLCSDGLTEELPDQKIAHNLQINSLLDQSALSLVEDAKEQGGHDNITVVIVALE” is “not soluble”.
In the case of “MSLATYETFAAVYDAVMDDTLYAKWTDFSLRHFPKGKKKLLELACGTGIQSVRFAQAGYAVTGLDLSGDMLKLAKKRATSAHQSIQFIEGNMLDLSNVGKYDLITCYSDSICYMQDEVEVGDVFIEVYKALEENGVFIFDVHSTYQTDKVFPGYSYHENADDFAMVWDTYEDDAPHSIVHELTFFVQEEDGRFTRHDEVHEERTYDILTYDILLEQAGFKDVKVYADFEDKKPTATSARWFFVAHKEGHHHHHH”, the “soluble on expression in E. coli” value was “soluble”.
Take “MAHHHHHHMASADVVSTWVCPICMVSNETQGEFTKDTLPTPICINCGVPADYELTKSSINCSNAIDPNANPRNQFG”: the “soluble on expression in E. coli” value is “soluble”.
To “MSFNKEDQQDEALAFLLAVATVESGDAGAFRQRVTQYMTKAYGEDTSKMTMQEQGRAEAVSRLYARADNIYHRIKVNALPRLSRGF” belongs “not soluble”; to “GALKRAEELKTQANDYFKAKDYENAIKFYSQAIELNPSNAIYYGNRSLAYLRTECYGYALGDATRAIELDKKYIKGYYRRAASNMALGKFRAALRDYETVVKVKPHDKDAKMKYQECNKIVKQKAFERAIAGDEHKRSVVDSLDIESMTIEDEYSGPKLEDGKVTISFMKELMQWYKDQKKLHRKCAYQILVQVKEVLSKLSTLVETTLKETEKITVCGDTHGQFYDLLNIFELNGLPSETNPYIFNGDFVDRGSFSVEVILTLFGFKLLYPDHFHLLRGNHETDNMNQIYGFEGEVKAKYTAQMYELFSEVFEWLPLAQCINGKVLIMHGGLFSEDGVTLDDIRKIERNRQPPDSGPMCDLLWSDPQPQNGRSISKRGVSCQFGPDVTKAFLEENNLDYIIRSHEVKAEGYEVAHGGRCVTVFSAPNYCDQMGNKASYIHLQGSDLRPQFHQFTAVPHPNVKPMAYANTLLQLGMM”, “soluble”.
To “MGSDKIHHHHHHMRILVTNDDGIQSKGIIVLAELLSEEHEVFVVAPDKERSATGHSITIHVPLWMKKVFISERVVAYSTTGTPADCVKLAYNVVMDKRVDLIVSGVNRGPNMGMDILHSGTVSGAMEGAMMNIPSIAISSANYESPDFEGAARFLIDFLKEFDFSLLDPFTMLNINVPAGEIKGWRFTRQSRRRWNDYFEERVSPFGEKYYWMMGEVIEDDDRDDVDYKAVREGYVSITPIHPFLTNEQCLKKLREVYD” belongs “not soluble”.
As for “MERDTVVKEVVEALKIFSRDIRTQIDEMGSQLRAEIQDTANQLRAEIQDTANQLRAEMQETANQLRAEMQETANQLRAEMQQFRAEVNERFDRLEQKFAGLRVELTETQETVHFLASKTIQHEKKLHHLAKQLESIR”, the “soluble on expression in E. coli” value is on record as “not soluble”.
The entry for “MGSDKIHHHHHHMNFETVIGLEVHVELKTESKIFSASPNHFGAEPNANTSVIDLGYPGVLPVLNKAAVEFAMKAAMALNCEVATDTKFDRKNYFYPDNPKAYQISQFDKPIGENGWIEIEVDGTKKKIGITRLHLEEDAGKLTHSGNGYSLVDFNRQGTPLIEIVSEPDIRTPQEAYAYLEKLKSIIQYTGVSDCKMEEGSLRCDANISLRPVGQEEFGTKTELKNLNSFNFVRKGLEYEEKRQAQVLLSGGEILQETRRYDEAANKTVLMRVKEGSDDYRYFPEPDLVALHIDDEWKARIRSEIPELPDARKKRYVEELGLPAYDAMVLTLTKEMSDFFEETIAKGADPKLASNWLMGEVSGYLNAEQKELDEVALTPDGLAKMIQLIEKGTISSKIAKKVFKDLIEKGGDPEEIVKAKGLVQISDEGELRKYVVEVLDNNQQSIDDFKNGKDRAIGFLVGQIMKATKGKANPPMVNKLLLEEINKR” is “not soluble”; for “MTEEKPKIGRPPVLSCAERTCQILRAAEQVFVCHGYSGTTMDRIACAAGMSKRTLYQHFPDKLAVLQGILRAYDAGPLMESLTDPDPPGSAREILHRSLVEILRFLLCPAQVALTRLAVSEATAAPEVARLFYDNAMGGLSAAFTRRIAGLAAQGRIRCSDADWLGSSLVGCALNRQLLRRLTHPEAGPPDVAELERRVSALLDLVGPSLGFAD” it is “not soluble”; for “MTQHNDNDDDAALFRAAIGPVRPLRPSEMAITIKPPSRPRRRIIQHHQDEAKSKFAQLLRESAPLEAGDTISYRSKALPSRLFQRLKRGQFSVQDELDLHGATVVQAETLLRQFLLEAHMYEYGCVRIIHGKGLQSNGGTPVLKNLVNQLLRLRKDVLAFHSSPPAQGGTGAVLVLLTHH” it is “soluble”.
